Experimental data taken from publication PMC11131964, “Enantioselective transformation of phytoplankton-derived dihydroxypropanesulfonate by marine bacteria” (The ISME Journal, 2024).
Blank lines part the entries; values can stand above or below the molecule they belong to.

What was measured:
[1] = biological target: HpsP from Dinoroseobacter shibae DFL 12 (S-DHPS dehydrogenase) (Dinoroseobacter shibae DFL 12) (UniProt A8LJR6); assay: crystal structure; DsHpsP alone, crystallised at 18°C in 0.2 M sodium formate, 18% PEG 3350; 2.3 Å; oligomer seen in the asymmetric unit
[2] = biological target: T1, RpHpsP (S-DHPS dehydrogenase HpsP, SPO0596) (Ruegeria pomeroyi, UniProt Q5LVU9); assay: SPR (Biacore T200, CM5 chip); also NADH formation assay; type: binding
T1 sequence (Q5LVU9 1-332): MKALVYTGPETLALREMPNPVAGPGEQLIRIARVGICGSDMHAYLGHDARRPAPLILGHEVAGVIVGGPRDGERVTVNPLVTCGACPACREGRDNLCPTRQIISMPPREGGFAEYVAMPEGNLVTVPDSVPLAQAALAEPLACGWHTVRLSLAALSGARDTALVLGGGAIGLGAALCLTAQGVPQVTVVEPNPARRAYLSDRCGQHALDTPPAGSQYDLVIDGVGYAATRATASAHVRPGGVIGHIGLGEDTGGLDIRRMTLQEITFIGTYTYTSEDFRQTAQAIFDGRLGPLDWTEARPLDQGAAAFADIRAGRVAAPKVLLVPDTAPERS

[3] = biological target: T2, RpHpsN (R-DHPS dehydrogenase HpsN, SPO0594) (Ruegeria pomeroyi, UniProt Q5LVV1); assay: SPR (Biacore T200, CM5 chip); also NADH formation assay, Km […]; type: binding
T2 sequence (Q5LVV1 1-435): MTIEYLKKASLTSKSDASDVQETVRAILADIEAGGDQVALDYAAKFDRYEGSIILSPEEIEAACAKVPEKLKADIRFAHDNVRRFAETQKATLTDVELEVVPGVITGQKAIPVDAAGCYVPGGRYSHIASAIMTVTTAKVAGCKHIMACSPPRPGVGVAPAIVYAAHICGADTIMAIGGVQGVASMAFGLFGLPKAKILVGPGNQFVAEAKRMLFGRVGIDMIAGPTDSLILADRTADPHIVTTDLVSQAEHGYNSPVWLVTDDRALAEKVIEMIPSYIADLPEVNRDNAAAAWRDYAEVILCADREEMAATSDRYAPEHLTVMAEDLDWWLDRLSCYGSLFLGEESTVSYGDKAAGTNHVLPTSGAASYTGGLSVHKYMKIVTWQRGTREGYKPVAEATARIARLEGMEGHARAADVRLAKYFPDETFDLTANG

[4] = biological target: T3, RpHpsO (R-DHPS dehydrogenase HpsO, SPO0595) (Ruegeria pomeroyi, UniProt Q5LVV0); assay: as above; type: binding
T3 sequence (Q5LVV0 1-253): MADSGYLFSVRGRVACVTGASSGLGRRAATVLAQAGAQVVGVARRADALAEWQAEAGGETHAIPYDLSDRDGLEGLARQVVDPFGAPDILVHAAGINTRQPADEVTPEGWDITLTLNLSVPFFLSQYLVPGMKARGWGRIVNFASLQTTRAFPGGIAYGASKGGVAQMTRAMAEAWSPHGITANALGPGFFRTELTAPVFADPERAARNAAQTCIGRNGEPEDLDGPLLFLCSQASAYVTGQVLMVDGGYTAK

[5] = biological target: the molecule itself; assay: crystal structure; RpHpsO alone, crystallised at 20°C in 0.1 M sodium citrate pH 5.4, 0.8 M sodium formate; 1.7 Å; oligomer seen in the asymmetric unit
[6] = biological target: the molecule itself; assay: crystal structure; RpHpsN alone, crystallised at 18°C in 0.1 M Tris pH 7.5, 1.1 M ammonium sulfate; 2.9 Å; oligomer seen in the asymmetric unit
[7] = substrate: N[C@H](CO)Cc1c[nH]cn1; assay: Michaelis-Menten kinetics of purified enzyme (Km); type: biochemical, Escherichia coli
[8] = substrate: OC[C@@H](O)[C@@H](O)[C@H](O)[C@@H](O)CO; assay: Michaelis-Menten kinetics of purified enzyme (Km); type: biochemical, Bacillus subtilis

stoichiometry N [1]: 4
Molecule: HpsP from Dinoroseobacter shibae DFL 12 (S-DHPS dehydrogenase) (from UniProt A8LJR6 1-512) (enzyme)

Kd [2]: 740 µM
Molecule: O=S(=O)(O)C[C@@H](O)CO [S-DHPS]

Kd [3]: 860 µM
Kd [4]: 330 µM
Molecule: O=S(=O)(O)C[C@H](O)CO [R-DHPS]

B1: HpsO from Ruegeria pomeroyi DSS-3 (R-DHPS dehydrogenase) (enzyme)
chain: MADSGYLFSVRGRVACVTGASSGLGRRAATVLAQAGAQVVGVARRADALAEWQAEAGGETHAIPYDLSDRDGLEGLARQVVDPFGAPDILVHAAGINTRQPADEVTPEGWDITLTLNLSVPFFLSQYLVPGMKARGWGRIVNFASLQTTRAFPGGIAYGASKGGVAQMTRAMAEAWSPHGITANALGPGFFRTELTAPVFADPERAARNAAQTCIGRNGEPEDLDGPLLFLCSQASAYVTGQVLMVDGGYTAK
notes: HpsO, R-DHPS dehydrogenase of the short chain dehydrogenase/reductase family, Ruegeria pomeroyi DSS-3, locus tag SPO0595; Wild type; also called RpHpsO; SPO0595; source: E. coli BL21(DE3), pET28a, purified (HisTrap HP, Superdex 200 gel filtration)
stoichiometry N [5]: 4

B2: HpsN from Ruegeria pomeroyi DSS-3 (R-DHPS dehydrogenase) (enzyme)
chain: MTIEYLKKASLTSKSDASDVQETVRAILADIEAGGDQVALDYAAKFDRYEGSIILSPEEIEAACAKVPEKLKADIRFAHDNVRRFAETQKATLTDVELEVVPGVITGQKAIPVDAAGCYVPGGRYSHIASAIMTVTTAKVAGCKHIMACSPPRPGVGVAPAIVYAAHICGADTIMAIGGVQGVASMAFGLFGLPKAKILVGPGNQFVAEAKRMLFGRVGIDMIAGPTDSLILADRTADPHIVTTDLVSQAEHGYNSPVWLVTDDRALAEKVIEMIPSYIADLPEVNRDNAAAAWRDYAEVILCADREEMAATSDRYAPEHLTVMAEDLDWWLDRLSCYGSLFLGEESTVSYGDKAAGTNHVLPTSGAASYTGGLSVHKYMKIVTWQRGTREGYKPVAEATARIARLE
notes: HpsN, R-DHPS dehydrogenase (sulfopropanediol 3-dehydrogenase) of the aldehyde dehydrogenase superfamily, Ruegeria pomeroyi DSS-3, locus tag SPO0594; Wild type; Val218-Gly225 and Thr348-Leu374 lack electron density in the crystal structure; also called RpHpsN; SPO0594; source: E. coli BL21(DE3), pET28a, purified (HisTrap HP, Superdex 200 gel filtration)
stoichiometry N [6]: 4

B3: L-histidinol dehydrogenase (Escherichia coli K-12) (protein)
chain: SFNTIIDWNSCTAEQQRQLLMRPAISASESITRTVNDILDNVKARGDEALREYSAKFDKTTVTALKVSAEEIAAASERLSDELKQAMAVAVKNIETFHTAQKLPPVDVETQPGVRCQQVTRPVASVGLYIPGGSAPLFSTVLMLATPASIAGCKKVVLCSPPPIADEILYAAQLCGVQDVFNVGGAQAIAALAFGTESVPKVDKIFGPGNAFVTEAKRQVSQRLDGAAIDMPAGPSEVLVIADSGATPDFVASDLLSQAEHGPDSQVILLTPAADMARRVAEAVERQLAELPRAETARQALNASRLIVTKDLAQCVEISNQYGPEHLIIQTRNARELVDSITSAGSVFLGDWSPESAGDYASGTNHVLPTYGYTATCSSLGLADFQKRMTVQELSKEGFSALASTIETLAAAERLTAHKNAVTLRVNALKEQA
Km [7]: 9.37 ± 3.63 mM
kcat [7]: 0.042 ± 0.022 s⁻¹
kcat/Km [7]: 4 ± 2 M⁻¹ s⁻¹

B4: D-sorbitol dehydrogenase (Bsubs1_010100003458) (Bacillus subtilis subsp. subtilis str. 168) (protein)
chain: THTVPQNMKAAVMHNTREIKIETLPVPDINHDEVLIKVMAVGICGSDLHYYTNGRIGNYVVEKPFILGHECAGEIAAVGSSVDQFKVGDRVAVEPGVTCGRCEACKEGRYNLCPDVQFLATPPVDGAFVQYIKMRQDFVFLIPDSLSYEEAALIEPFSVGIHAAARTKLQPGSTIAIMGMGPVGLMAVAAAKAFGAGTIIVTDLEPLRLEAAKKMGATHIINIREQDALEEIKTITNDRGVDVAWETAGNPAALQSALASVRRGGKLAIVGLPSQNEIPLNVPFIADNEIDIYGIFRYANTYPKGIEFLASGIVDTKHLVTDQYSLEQTQDAMERALQFKNECLKVMVYPNR
Km [8]: 32.35 ± 3.59 mM
kcat [8]: 0.027 ± 0.001 s⁻¹
kcat/Km [8]: 0.83 ± 0.045 M⁻¹ s⁻¹
